1 molecule from patent publication US11066655B2, “RNA polymerase, methods of purification and methods of use” (President and Fellows of Harvard College, priority 2013, dated 2021) can be followed below.

The test system of one series is pUC19-S5P or pUC19-T7P. Briefly: Processivity gel assay, rolling-circle synthesis on single-promoter plasmids. In kind it is biochemical. The method, then: FIGS. 9A-9H depict the processivity of Syn5 and T7 RNA polymerases. A) Agarose gel showing RNA synthesis by previously purified Syn5 RNA polymerase, newly purified Syn5 RNA polymerase with the improved procedure, and T7 RNA polymerase on a plasmid template containing a single cognate promoter (as shown in the schematic). B) Product as shown in A) by S5N2 RNA polymerase was incubated with 1 U/[…]1 RNase I or DNase I to confirm its RNA nature. C) Effect of increasing KCl concentration on Syn5 RNA polymerase transcription. D) Products by Syn5 and T7 RNAP in a rolling-circle manner were analyzed at denaturing condition. E) Same assay as D) except that the template plasmids were linearized as shown in the schematic. F) & G) Decreasing the concentration of T7 (F) and Syn5 (G) RNA polymerase reduced the abortive products due to clash of RNA polymerases at promoter region. H) RNA polymerase promoter distribution on coliphage T7 and cyanophage Syn5 genomes.
DNA templates for transcription assays were either plasmids or dsDNA fragments made of synthesized oligonucleotides. To test the processivity of Syn5 and T7 RNAP, a single Syn5 or T7 promoter plus 3 guanosine downstream of the promoter (Syn5 5′-ATTGGGCACCCGTAAGGG-3′ (SEQ ID NO:1) or T7 5′-[…]-3′) (SEQ ID NO:2) was inserted between the BamHI and XbaI sites of plasmid pUC19 to form pUC19-S5P or pUC19-T7P. The templates for run-off tRNA^Arg synthesis were formed by annealing of two complementary synthesized DNA oligos of which sequences are as following:
For the results shown in FIG. 9, reaction mixtures (10 μl) contained 40 mM Tris-HCl pH 8.0, 6 mM MgCl2, 2 mM spermidine, 10 mM DTT, 600 µM[…]P, GTP, CTP, and UTP, 1.5 U/µl RNaseOUT™ recombinant ribonuclease inhibitor, 0.04 U/µl yeast inorganic pyrophosphatase, 10 nM pUC19-Syn5P3G or pUC19-T7P3G, 10 nM Syn5 or T7 RNAP and various amount of KCl as noted in the figure or described in the figure legend. After 1 hr incubations at RT, one unit of DNase I was added to each reaction mixture and incubated for an additional 15 min at 37° C. to remove the DNA templates. For FIGS. 8A-8C, 2 µl reaction mixture was directly mixed with native loading dye and loaded onto 1.6% TAE agarose gel. For FIGS. 8D-8F, RNA products were purified with RNA Clean & Concentrator™-5 kit into a final solution of 10 µl and 5 µl each was mixed with 5 µl denaturing RNA loading dye (New England Biolabs). Samples were then heated at 65° C. for 5 min and loaded onto 1.6% TAE agarose gel. RNA products were visualized by ethidium bromide staining.

Series [1] is described as follows: Solubility / precipitation of the purified enzyme. The class given is physicochemical. As to conditions: transcription reaction. The method, then:
His-tagged Syn5 RNAP was expressed from a pET24 vector harboring His-tagged Syn5 RNAP gene between the NdeI and NotI sites (Zhu et al. (2013)) and purified by Ni-NTA agarose and gel filtration chromatography. 2 M NaCl was present during the purification procedure and was removed by dialysis as the protein was finally concentrated. E. coli BL21(DE3) cells over-producing the protein were cultured in 2 L LB medium containing 50 µg/ml kanamycin at 37° C. until they reached an OD600 of approximately 1.2. The gene for Syn5 RNAP was induced by the addition of 0.5 mM IPTG at 16° C. and incubation continued for 3 hr. Cells were harvested, resuspended in 50 mM sodium phosphate, pH 8.0, 100 mM NaCl, and lysed by three cycles of freeze-thaw in the presence of 0.5 mg/ml lysozyme. 2 M NaCl was then added to the lysed cells and the cleared lysate was collected by centrifugation. 2 ml Ni-NTA agarose was added to the clear lysate and mixed at 4° C. overnight. The resin was then washed with 30 ml of wash buffer (50 mM sodium phosphate, pH 8.0, 2 M NaCl, and 20 mM imidazole). […] Fractions were analyzed on SDS-PAGE gels and those with Syn5 RNAP over 80% were collected and concentrated with Amicon Ultra-15 Centrifugal Filter Units (Millipore) to 1 ml. […] Fractions were analyzed on SDS-PAGE gels and those with homogenous Syn5 RNAP were pooled. […]

B1: Syn5 RNAP: single subunit DNA-dependent RNA polymerase from marine cyanophage Syn5, amino acid sequence SEQ ID NO:23 (protein)
chain: MSFDLIARQLQRETEAAELARKRLQDARREANERSYASSNIESRKAIATFLDPIAQRIGERLFTLRRGTGAVDAAEVYKHLKNADHHHLALITMKTALDVLGKDPEPQIQQLTTAIGRNIQLELRLTYYAEENPELYKQASRFFHAGTGTRQKATVIKLKFNREGIEWDQWSRVTCHKVGQWLMLAMADVTGWIERATDRTSGGRKTKTRICYSREFLQHRDTILAAAEQLAFCQWPMLCPPIEWSNDHNGGYLSEQIRRVNPLIRKTGPLGTRKQGDIPLAMLNNLQGQAYKVNPEVLDIANHCYESNVTVGKFIRHAPLPVPPSPGEDCTEDQLTAYKRARREAEDFNAQISQKNWRTTEVMYVARKYADEASFWMPASFDYRGRVYFLNTALNPQGTDFDKALLYFAEEGPVNEWWLSFHVATTYGLDKETMVNRVQWARDNHELIDRIASDPVRHTEWHDADEPWCFLAACLEYKACVIDGTKQTSGLPIGIDATCSGLQHLAAMTRCGRTAALVNVTPTDKPADAYKTVAQASLKHLPKEQHEWITRKVTKRPVMCTPYGVTMSSARGYIRDQLVKDGHKEDLRSPGVLNGIVKAIFNEAIPEVIPGPVQVMAWLKRSAGQIIDRGDSTITWTTPSGFEVVQDLKKSKTYEVKTRIMGGARIKLQVGDGFTDEPDRDHHKSALAPNVVHSNDASLLHLTFAFWDKPFTVIHDCVLGRSCDMDQMGSDIRLHFAEMYKADVMQDWADQVGVELPVDLIKNTLDIDSVNQSLYFFS
modifications: Amino acid sequence of a cyanophage Syn5 RNAP
On to B1, for which, in the series with pUC19-S5P or pUC19-T7P, the apparent processivity result is reported as “over 30 kilo nucleotides” and the processivity result is “greater than 30,000 nt”. Besides, in the series on pUC19-S5P or pUC19-T7P (low enzyme concentration), the “length approached by some products” value is listed as around 30 kilo nt and the “length of most products” value is “over 9 kilo nt”. In series [1], the “final concentration in the reaction resulting in severe protein precipitation” value is “over 5 µM”.
